Measurements: US6627617

Legend:
[1] = system: D412A-68 D412A (Adeno-associated virus 2); experiment: EMSA; conditions: apparent Kd, same as wt; 40 mM KCl, 10 mM HEPES pH 7.5, poly dIdC, 25 C
[2] = system: Rep68H6 (wt Rep68) (Adeno-associated virus 2); experiment: EMSA; conditions: apparent Kd; 40 mM KCl, 10 mM HEPES pH 7.5, poly dIdC, 25 C

Q: For “AAV terminal repeat hairpin with double-stranded trs (32P-TR)”, which Kd [1] is on record?
A: The Kd was 3 nM.

Q: What about the Kd [2] of the same substance?
A: Its Kd is 3 nM.
